This assay deals with PSA (prostate specific antigen) (UniProt P07288 25-261). Nature of the assay: cell-based or functional assay.
PSA (prostate specific antigen), sequence (P07288 25-261 limits assumed): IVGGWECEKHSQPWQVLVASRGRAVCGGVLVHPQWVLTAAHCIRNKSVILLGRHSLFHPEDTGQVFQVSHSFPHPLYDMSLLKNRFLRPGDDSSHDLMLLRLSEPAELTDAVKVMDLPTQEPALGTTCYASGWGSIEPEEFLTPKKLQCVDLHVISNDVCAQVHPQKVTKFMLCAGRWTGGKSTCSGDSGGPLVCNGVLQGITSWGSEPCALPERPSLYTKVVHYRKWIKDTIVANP

B1: H6-68-AP-PSA-VHH (other)
chain: SSGSKALLKGVRDFNPISACVCLLENSSDGHSERLFGIGFGPYIIANQHLFRRNNGELTIKTMHGEFKVKNSTQLQMKPVEGRDIIVIKMAKDFPPFPQKLKFRQPTIKDRVCMVSTNFQQKSVSSLVSESSHIVHKEDTSFWQHWITTKDGQCGSPLVSIIDGNILGIHSLTHTTNGSNYFVEFPEKFVATYLDAADGWCKNWKFNADKISWGSFILWEDAPGGEHSSKLQSGAGREYVRFAPGGSGGSGGSGGSGGSGGDVQLQESGGGSVQAGGSLRLSCVASGWIYIPPCMAWFRQAPGKERERVATINPSGRTYYADSTKGRFRISQDNVKRTLYLYMNSLKPEDTATYYCAADDGTCPRMEFDDWGQGTQVTVSSGGSHHHHHH
As for B1, the “sensitivity of the PSA biosensor assay” value was 2 fold better than the N-terminal VHH configuration.

The record behind these values is patent US9791436 (UNIVERSITY OF QUEENSLAND, dated 2017).
